From patent US20160159862A1 (PROTAGONIST THERAPEUTICS, published 2016)
Bridge positions count the residues as written; N and C are the ends. Square brackets hold non-standard residues; d marks the D form. Phe(4-COOH) = N[C@@H](Cc1ccc(C(=O)O)cc1)C(=O)O; Phe(4-tBu) = CC(C)(C)c1ccc(C[C@H](N)C(=O)O)cc1; Bip = N[C@@H](Cc1ccc(-c2ccccc2)cc1)C(=O)O; Phe(4-F) = N[C@@H](Cc1ccc(F)cc1)C(=O)O; 1Nal = N[C@@H](Cc1cccc2ccccc12)C(=O)O; 2Nal = N[C@@H](Cc1ccc2ccccc2c1)C(=O)O; d1Nal = N[C@H](Cc1cccc2ccccc12)C(=O)O; d2Nal = N[C@H](Cc1ccc2ccccc2c1)C(=O)O; NMeR = CN[C@@H](CCCNC(=N)N)C(=O)O; hPhe = N[C@@H](CCc1ccccc1)C(=O)O; Tic = O=C(O)[C@@H]1Cc2ccccc2CN1; Aic = NC1(C(=O)O)Cc2ccccc2C1; Pen = CC(C)(S)[C@H](N)C(=O)O; dNMeK = CN[C@H](CCCCN)C(=O)O

Key:
[1] = biological target: rh integrin α4β7 (R&D Systems #5397-A30) (human) (UniProt P13612); assay: α4β7-MAdCAM competition ELISA
[2] = biological target: α4β7 integrin on human cells (human, UniProt P13612 34-1032; P26010 20-798); assay: cell-based or functional assay

Row | Binder | IC50 [1] [nM] | α4β7 cell (Hu) IC50 [2] [nM]
1 | Ac-[Pen][NMeR]SDTL[Pen][d2Nal]E[dK]-NH2 (disulfide 1-7; SMILES CC(=O)N[C@@H]1C(=O)N(C)[C@@H](CCCNC(=N)N)C(=O)N[C@@H](CO)C(=O)N[C@@H](CC(=O)O)C(=O)N[C@@H]([C@@H](C)O)C(=O)N[C@@H](CC(C)C)C(=O)N[C@H](C(=O)N[C@H](Cc2ccc3ccccc3c2)C(=O)N[C@@H](CCC(=O)O)C(=O)N[C@H](CCCCN)C(N)=O)C(C)(C)SSC1(C)C) [SEQ ID NO 11] | > 25 | 
2 | Ac-[Pen][NMeR]SDTL[Pen][d1Nal]E[dK]-NH2 (disulfide 1-7; SMILES CC(=O)N[C@@H]1C(=O)N(C)[C@@H](CCCNC(=N)N)C(=O)N[C@@H](CO)C(=O)N[C@@H](CC(=O)O)C(=O)N[C@@H]([C@@H](C)O)C(=O)N[C@@H](CC(C)C)C(=O)N[C@H](C(=O)N[C@H](Cc2cccc3ccccc23)C(=O)N[C@@H](CCC(=O)O)C(=O)N[C@H](CCCCN)C(N)=O)C(C)(C)SSC1(C)C) [SEQ ID NO 10] | > 10 | 
3 | Ac-[Pen][NMeR]SDTL[Pen][1Nal][dE][dNMeK]-NH2 (disulfide 1-7; SMILES CC(=O)N[C@@H]1C(=O)N(C)[C@@H](CCCNC(=N)N)C(=O)N[C@@H](CO)C(=O)N[C@@H](CC(=O)O)C(=O)N[C@@H]([C@@H](C)O)C(=O)N[C@@H](CC(C)C)C(=O)N[C@H](C(=O)N[C@@H](Cc2cccc3ccccc23)C(=O)N[C@H](CCC(=O)O)C(=O)N(C)[C@H](CCCCN)C(N)=O)C(C)(C)SSC1(C)C) [SEQ ID NO 12] | > 25 | 
4 | Ac-[Pen][NMeR]SDTL[Pen][2Nal]E[dNMeK]-NH2 (disulfide 1-7; SMILES CC(=O)N[C@@H]1C(=O)N(C)[C@@H](CCCNC(=N)N)C(=O)N[C@@H](CO)C(=O)N[C@@H](CC(=O)O)C(=O)N[C@@H]([C@@H](C)O)C(=O)N[C@@H](CC(C)C)C(=O)N[C@H](C(=O)N[C@@H](Cc2ccc3ccccc3c2)C(=O)N[C@@H](CCC(=O)O)C(=O)N(C)[C@H](CCCCN)C(N)=O)C(C)(C)SSC1(C)C) [SEQ ID NO 15] | < 10 | 
5 | Ac-[Pen][NMeR]SDTL[Pen][1Nal][dH][dK]-NH2 (disulfide 1-7 (inferred); also: homodimer via DIG) [SEQ ID NO 112] |  | > 50
6 | Ac-[Pen][NMeR]SDTL[Pen]W[Aic][dK]-NH2 (disulfide 1-7; SMILES CC(=O)N[C@@H]1C(=O)N(C)[C@@H](CCCNC(=N)N)C(=O)N[C@@H](CO)C(=O)N[C@@H](CC(=O)O)C(=O)N[C@@H]([C@@H](C)O)C(=O)N[C@@H](CC(C)C)C(=O)N[C@H](C(=O)N[C@@H](Cc2c[nH]c3ccccc23)C(=O)NC2(C(=O)N[C@H](CCCCN)C(N)=O)Cc3ccccc3C2)C(C)(C)SSC1(C)C) [SEQ ID NO 51] | > 25 | 
7 | Ac-[Pen][NMeR]SDTL[Pen][1Nal][dL][dK]-NH2 (disulfide 1-7 (inferred); also: homodimer via DIG) [SEQ ID NO 113] |  | > 500
8 | Ac-[Pen][NMeR]SDTL[Pen]W[Tic][dK]-NH2 (disulfide 1-7 (inferred); also: dimer via DIG) [SEQ ID NO 109] |  | > 100
9 | Ac-[Pen][NMeR]SDTL[Pen][1Nal][dR][dK]-NH2 (disulfide 1-7 (inferred); also: homodimer via DIG) [SEQ ID NO 114] |  | > 100
10 | Ac-[Pen][NMeR]SDTL[Pen]W[dH][dK]-NH2 (disulfide 1-7 (inferred); also: dimer via DIG) [SEQ ID NO 104] |  | > 100
11 | Ac-[Pen][NMeR]SDTL[Pen][1Nal][dE][dK]-NH2 (disulfide 1-7 (inferred)) [SEQ ID NO 8] | > 25 | 
12 | Ac-[Pen][NMeR]SDTL[Pen][2Nal][hPhe][dK]-NH2 (disulfide 1-7; SMILES CC(=O)N[C@@H]1C(=O)N(C)[C@@H](CCCNC(=N)N)C(=O)N[C@@H](CO)C(=O)N[C@@H](CC(=O)O)C(=O)N[C@@H]([C@@H](C)O)C(=O)N[C@@H](CC(C)C)C(=O)N[C@H](C(=O)N[C@@H](Cc2ccc3ccccc3c2)C(=O)N[C@@H](CCc2ccccc2)C(=O)N[C@H](CCCCN)C(N)=O)C(C)(C)SSC1(C)C) [SEQ ID NO 50] | > 10 | 
13 | Ac-[Pen][NMeR]SDTL[Pen][Phe(4-F)][dE][dK]-NH2 (disulfide 1-7 (inferred); also: dimer via DIG) [SEQ ID NO 107] |  | > 25
14 | Ac-[Pen][NMeR]SDTL[Pen][2Nal][dE][dK]-NH2 (disulfide 1-7 (inferred)) [SEQ ID NO 9] | > 10 | > 100
15 | Ac-[Pen][NMeR]SDTL[Pen]W[dW][dK]-NH2 (disulfide 1-7 (inferred); also: dimer via DIG) [SEQ ID NO 110] |  | > 10
16 | Ac-[Pen][NMeR]SDTL[Pen][Bip][dE][dK]-NH2 (disulfide 1-7 (inferred); also: dimer via DIG) [SEQ ID NO 108] |  | > 10
17 | Ac-[Pen][NMeR]SDTL[Pen][2Nal][dE][dK]-NH2 (disulfide 1-7 (inferred); also: homodimer via DIG linker) [SEQ ID NO 29] | < 10 | > 10
18 | Ac-[Pen][NMeR]SDTL[Pen][Phe(4-tBu)][dE][dK]-NH2 (disulfide 1-7 (inferred); also: dimer via DIG) [SEQ ID NO 106] |  | ≤ 10
19 | Ac-[Pen][NMeR]SDTL[Pen][1Nal][dF][dK]-NH2 (disulfide 1-7 (inferred); also: dimer via DIG) [SEQ ID NO 111] |  | > 100
20 | Ac-[Pen][NMeR]SDTL[Pen]W[Phe(4-COOH)][dK]-NH2 (disulfide 1-7 (inferred); also: dimer via DIG) [SEQ ID NO 105] |  | > 50
21 | Ac-[Pen][NMeR]SDTL[Pen][2Nal][dK]-NH2 (disulfide 1-7; SMILES CC(=O)N[C@@H]1C(=O)N(C)[C@@H](CCCNC(=N)N)C(=O)N[C@@H](CO)C(=O)N[C@@H](CC(=O)O)C(=O)N[C@@H]([C@@H](C)O)C(=O)N[C@@H](CC(C)C)C(=O)N[C@H](C(=O)N[C@@H](Cc2ccc3ccccc3c2)C(=O)N[C@H](CCCCN)C(N)=O)C(C)(C)SSC1(C)C) [SEQ ID NO 88] | > 10 | 
